Legend:
[1] = target: T1, Recombinant soluble RSV F stabilized in the pre-fusion conformation (soluble, processed, stabilized RSV F … (respiratory syncytial virus (RSV), UniProt P03420 26-513)); experiment: sandwich ELISA: antibody coated, preF titrated, CR9506-HRP detection; preF + DMSO
T1 construct: also called RSV pre-fusion F protein; RSV prefusion F

[2] = target: T1, Recombinant soluble RSV F stabilized in …; experiment: sandwich ELISA: antibody coated, preF titrated, CR9506-HRP detection; preF + compound III, trimer:compound 1:50
[3] = target: T1, Recombinant soluble RSV F stabilized in …; experiment: sandwich ELISA: antibody coated, preF titrated, CR9506-HRP detection; preF + compound VII, trimer:compound 1:10
[4] = target: T1, Recombinant soluble RSV F stabilized in …; experiment: sandwich ELISA: antibody coated, preF titrated, CR9506-HRP detection; preF alone
[5] = target: T1, Recombinant soluble RSV F stabilized in …; experiment: sandwich ELISA: antibody coated, preF titrated, CR9506-HRP detection; preF + compound VII, trimer:compound 1:3
[6] = target: T1, Recombinant soluble RSV F stabilized in …; experiment: sandwich ELISA: antibody coated, preF titrated, CR9506-HRP detection; preF + compound III, trimer:compound 1:10
[7] = target: T1, Recombinant soluble RSV F stabilized in …; experiment: sandwich ELISA: antibody coated, preF titrated, CR9506-HRP detection; preF + compound VII, trimer:compound 1:50
[8] = target: T1, Recombinant soluble RSV F stabilized in …; experiment: sandwich ELISA: antibody coated, preF titrated, CR9506-HRP detection; preF + compound III, trimer:compound 1:3

B1: CR9506 (antibody, human IgG1, kappa, V domains shown)
VH: EVQLVQSGAEVKKPGSSVKVSCKASGGTFSRSLITWVRQAPGQGLEWMGEISLVFGSAKNAQKFQGRVTITADESTSTAHMEMISLKHEDTAVYYCAAHQYGSGTHNNFWDESELRFDLWGQGTLVTVSS
VL: DIVMTQSPSSLSASVGDRVTIACRASQSIGTYLNWYQQKPGKAPKLLIYAASSLQSGVPSRFSGSGSGTHFTLAISSLQAEDFATYSCQQSYTIPYTFGQGTKLEIKR
notes: An HRP-labelled CR9506 was also the detection antibody in the ELISA; also called CR9506 (pan)
EC50 [1]: 0.29 nM
EC50 [2]: 0.31 nM
EC50 [3]: 0.29 nM
IC50 [4]: 0.28 nM
EC50 [5]: 0.32 nM
EC50 (half-maximal binding concentration) [6]: 0.29 nM
EC50 (half-maximal binding concentration) [7]: 0.31 nM
EC50 (half-maximal binding concentration) [8]: 0.3 nM

Source: US20230310573A1 (Janssen / Centocor, published 2023)
